± gives the uncertainty stated by the source.
Assay: self-splicing fitness, log relative to wild type (ln ratio); higher = more splicing; Tetrahymena group I intron in knt gene, E. coli kanamycin selection, DiMSum; sequences stand for … in CUCUCU…GGAGGGAAAAGUUAUCAGGCAUGCACCUGGUAGCUAGUCUUUAAACCAAUAGAUUGCAUCGGUUUAAAAGGCAAGACCGUCAAAUUGCGGGAAAGGGGUCAACAGCCGUUCAGUACCAAGUCUCAGGGGAAACUUUGAGAUGGCCUUGCAAAGGGUAUGGUAAUAAGCUGACGGACAUGGUCCUAACCACGCAGCCAAGUCCUAAGUCAACAGAUCUUCUGUUGAUAUGGAUGCAGUUCACAGACUAAAUGUCGGUCGGGGAAGAUGUAUUCUUCUCAUAAGAUAUAGUCGGACCUCUCCUUAAUGGGAGCUAGCGGAUGAAGUGAUGCAACACUGGAGCCGCUGGGAACUAAUUUGUAUGCGAAAGUAUAUUGAUUAGUUUUGGAGUACUCGUGGUCG
Summary of the method: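 A randomised library covering all eight P1ex-region intron nucleotides was built with the intron in the knt kanamycin-resistance gene on pET-22b(+) and held in E. coli BL21(DE3). Cells were grown overnight at 37°C or 30°C on LB agar, with or without 25 μg/mL kanamycin, plus 100 μg/mL carbenicillin, 50 μM IPTG and 0.2% rhamnose, and pooled colonies were amplicon-sequenced on an Illumina HiSeq 2500. DiMSum fitness is the error-weighted combination of wild-type-normalised replicate fold changes, kanamycin versus none.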

Sequence | self-splicing fitness (ln) (37 °C) | self-splicing fitness (ln) (30 °C)
UUCCAGCAAUAUUACGUGCC | -2.5 ± 0.39 | 
UUCCAGCAAUAUUACGUGGU | -2.08 ± 0.14 | -3.26 ± 0.17
UUCCAGCAAUAUUACGUUAU | -1.95 ± 0.15 | -3.08 ± 0.12
UUCCAGCAAUAUUACGUUCA | 0.389 ± 0.12 | -0.829 ± 0.13
UUCCAGCAAUAUUACGUUGG | -2.53 ± 0.21 | -3.19 ± 0.21
UUCGAGCAAUAUUACGAACU | -0.827 ± 0.44 | -3.28 ± 0.32
UUCGAGCAAUAUUACGAGUC | -2.03 ± 0.45 | -2.82 ± 0.29
UUCGAGCAAUAUUACGAUUC |  | -3.5 ± 0.44
UUCGAGCAAUAUUACGCAGG | -1.82 ± 0.23 | -2.48 ± 0.27
UUCGAGCAAUAUUACGCCUG | -2.64 ± 0.2 | -3.17 ± 0.29
UUCGAGCAAUAUUACGCGAG | -1.94 ± 0.44 | -2.72 ± 0.37
UUCGAGCAAUAUUACGCGGA | -3.71 ± 0.39 | -2.94 ± 0.25
UUCGAGCAAUAUUACGGCUA | -0.029 ± 0.37 | -1.51 ± 0.38
UUCGAGCAAUAUUACGGGCG | -1.01 ± 0.18 | -2.45 ± 0.2
UUCGAGCAAUAUUACGUAAG | -3.24 ± 0.42 | -3.03 ± 0.36
UUCGAGCAAUAUUACGUGGA | -2.58 ± 0.2 | -2.74 ± 0.22
UUCGAGCAAUAUUACGUGGG | -2.75 ± 0.19 | -2.45 ± 0.12
UUCGAGCAAUAUUACGUUGC | -1.27 ± 0.28 | -2.18 ± 0.23
UUCGAGCAAUAUUACGUUGG | -2.03 ± 0.43 | -4.14 ± 0.39
UUCGAGCAAUAUUACGUUUA | -1.54 ± 0.16 | -2 ± 0.16
UUCUAGCAAUAUUACGAAGC | -1.2 ± 0.45 | 
UUCUAGCAAUAUUACGAAUA | -0.478 ± 0.17 | -2.64 ± 0.3
UUCUAGCAAUAUUACGAGGC | -2.11 ± 0.38 | 
UUCUAGCAAUAUUACGAGUG | 0.118 ± 0.094 | 0.0611 ± 0.065
UUCUAGCAAUAUUACGAUUU | -1.33 ± 0.15 | -1.54 ± 0.16

Sequence | self-splicing fitness (ln) (37 °C) | self-splicing fitness (ln) (30 °C)
UUCUAGCAAUAUUACGGAGU | -2.56 ± 0.26 | -2.24 ± 0.2
UUCUAGCAAUAUUACGGCCA | -1.84 ± 0.42 | -2.24 ± 0.4
UUCUAGCAAUAUUACGGGUA | -0.842 ± 0.2 | -0.701 ± 0.18
UUCUAGCAAUAUUACGGUUA | -0.789 ± 0.093 | -1.7 ± 0.11
UUCUAGCAAUAUUACGUGUA | -0.8 ± 0.094 | -1.26 ± 0.08
UUGAAGCAAUAUUACGAAUG | -0.263 ± 0.11 | -0.746 ± 0.081
UUGAAGCAAUAUUACGAGGG | -1.37 ± 0.24 | -1.6 ± 0.17
UUGAAGCAAUAUUACGAGGU | -1.78 ± 0.22 | -4.15 ± 0.37
UUGAAGCAAUAUUACGAGUC | -2.8 ± 0.38 | -3.73 ± 0.32
UUGAAGCAAUAUUACGAGUG | -0.22 ± 0.077 | -0.347 ± 0.055
UUGAAGCAAUAUUACGAUUG | 0.272 ± 0.11 | -1.35 ± 0.088
UUGAAGCAAUAUUACGCAAG | 0.251 ± 0.12 | -0.402 ± 0.099
UUGAAGCAAUAUUACGCACA | 0.157 ± 0.13 | -0.575 ± 0.11
UUGAAGCAAUAUUACGCAGU | -1.54 ± 0.32 | -1.2 ± 0.3
UUGAAGCAAUAUUACGCAUC |  | -3.54 ± 0.33
UUGAAGCAAUAUUACGCAUG | -0.519 ± 0.11 | -0.179 ± 0.12
UUGAAGCAAUAUUACGCCCA | 0.296 ± 0.16 | 0.429 ± 0.12
UUGAAGCAAUAUUACGGACG | 0.902 ± 0.15 | -0.0419 ± 0.12
UUGAAGCAAUAUUACGGGGU | -2.27 ± 0.26 | -2.29 ± 0.2
UUGAAGCAAUAUUACGUACA | 0.767 ± 0.14 | 0.247 ± 0.1
UUGAAGCAAUAUUACGUACU | -0.0917 ± 0.11 | -0.493 ± 0.088
UUGAAGCAAUAUUACGUCGG | -0.024 ± 0.084 | 0.235 ± 0.075
UUGAAGCAAUAUUACGUGAC | -1.29 ± 0.24 | -3.1 ± 0.3
UUGAAGCAAUAUUACGUUGA | -0.404 ± 0.11 | -0.405 ± 0.093
UUGCAGCAAUAUUACGAAAG | -1.5 ± 0.35 | 

Sequence | self-splicing fitness (ln) (37 °C) | self-splicing fitness (ln) (30 °C)
UUGCAGCAAUAUUACGACGG | 0.395 ± 0.11 | -0.213 ± 0.076
UUGCAGCAAUAUUACGAGCA | -0.7 ± 0.11 | -2.35 ± 0.17
UUGCAGCAAUAUUACGAGUC | -2.64 ± 0.28 | -3.64 ± 0.2
UUGCAGCAAUAUUACGAUGA | 0.367 ± 0.12 | -0.402 ± 0.097
UUGCAGCAAUAUUACGCACU | -1.15 ± 0.13 | -1.6 ± 0.13
UUGCAGCAAUAUUACGCAUG | -2.99 ± 0.19 | -2.52 ± 0.13
UUGCAGCAAUAUUACGCGUC | -1.61 ± 0.14 | -3.44 ± 0.15
UUGCAGCAAUAUUACGCUAA | -0.551 ± 0.16 | -1.12 ± 0.16
UUGCAGCAAUAUUACGCUUC | -2.76 ± 0.25 | -3.76 ± 0.35
UUGCAGCAAUAUUACGGACG | -1.1 ± 0.23 | -0.806 ± 0.17
UUGCAGCAAUAUUACGGAUC | -2.93 ± 0.37 | -3.22 ± 0.27
UUGCAGCAAUAUUACGGCAG | -1.27 ± 0.17 | -0.754 ± 0.14
UUGCAGCAAUAUUACGGCGG | -1.01 ± 0.11 | -1.7 ± 0.081
UUGCAGCAAUAUUACGGCUA | 0.358 ± 0.06 | 0.128 ± 0.045
UUGCAGCAAUAUUACGGGAU | -1.68 ± 0.12 | -3.42 ± 0.17
UUGCAGCAAUAUUACGGGUC | -1.7 ± 0.22 | -2.73 ± 0.21
UUGCAGCAAUAUUACGGUAC | -0.374 ± 0.18 | -3.25 ± 0.33
UUGCAGCAAUAUUACGGUGG | -0.742 ± 0.1 | -1.79 ± 0.1
UUGCAGCAAUAUUACGUAAC | -2.81 ± 0.21 | -3.38 ± 0.16
UUGCAGCAAUAUUACGUAAG | 0.527 ± 0.11 | -0.486 ± 0.089
UUGCAGCAAUAUUACGUAGU | -2.51 ± 0.28 | -3.7 ± 0.22
UUGCAGCAAUAUUACGUCAU | -1.13 ± 0.1 | -2.15 ± 0.098
UUGCAGCAAUAUUACGUCUU | 0.289 ± 0.077 | -0.0818 ± 0.069
UUGCAGCAAUAUUACGUGUU | -2.47 ± 0.13 | -3.1 ± 0.12
UUGCAGCAAUAUUACGUUAG | -0.899 ± 0.085 | -1.22 ± 0.053

Sequence | self-splicing fitness (ln) (37 °C) | self-splicing fitness (ln) (30 °C)
UUGCAGCAAUAUUACGUUAU | -2.6 ± 0.21 | -3.03 ± 0.22
UUGCAGCAAUAUUACGUUGC | -2.86 ± 0.21 | -1.47 ± 0.1
UUGGAGCAAUAUUACGACAA | -0.647 ± 0.18 | -1.07 ± 0.16
UUGGAGCAAUAUUACGAGGU |  | -2.02 ± 0.47
UUGGAGCAAUAUUACGCAGC | -1.51 ± 0.36 | -3.49 ± 0.49
UUGGAGCAAUAUUACGCCAG | -2.07 ± 0.37 | -3.07 ± 0.26
UUGGAGCAAUAUUACGCCCA | -0.932 ± 0.4 | -2.38 ± 0.23
UUGGAGCAAUAUUACGCCUA | -0.365 ± 0.19 | -1.39 ± 0.2
UUGGAGCAAUAUUACGCGAG | -1.8 ± 0.21 | -1.15 ± 0.13
UUGGAGCAAUAUUACGCGCA | -1.09 ± 0.29 | -2.48 ± 0.29
UUGGAGCAAUAUUACGCGGG | -0.733 ± 0.15 | -3.26 ± 0.19
UUGGAGCAAUAUUACGCUAU | -1.93 ± 0.28 | -2.08 ± 0.44
UUGGAGCAAUAUUACGGAGA | -1.08 ± 0.23 | -2.59 ± 0.37
UUGGAGCAAUAUUACGGCGG | -1.88 ± 0.22 | -2.99 ± 0.33
UUGGAGCAAUAUUACGGGAA | -0.82 ± 0.17 | -3.64 ± 0.38
UUGGAGCAAUAUUACGGGGA | -2.72 ± 0.31 | -3.14 ± 0.28
UUGGAGCAAUAUUACGGGUG | -1.44 ± 0.23 | 
UUGGAGCAAUAUUACGGUCC |  | -3.7 ± 0.34
UUGGAGCAAUAUUACGGUGC |  | -1.64 ± 0.31
UUGGAGCAAUAUUACGUAGU | -2.6 ± 0.49 | -1.95 ± 0.25
UUGGAGCAAUAUUACGUGCC | -2.74 ± 0.36 | -3.24 ± 0.32
UUGGAGCAAUAUUACGUGGG |  | -2.17 ± 0.33
UUGUAGCAAUAUUACGAAGA |  | -3.14 ± 0.33
UUGUAGCAAUAUUACGAAUU | -1.47 ± 0.38 | -1.53 ± 0.34
